The values below come from publication PMC4787769.

For this series, the target named is mLANA DBD (Murine gammaherpesvirus 68 (MHV-68), UniProt O41974 124-314). The series can be described thus: SAXS; linear octamer model, no DNA bending. Particulars: protein: recombinant; tags: GST-6xHis tag (pET49b) removed by 3C protease; chain copies: 2.

B1: mLBS1-2 (dsDNA)
DNA 1: GCCATGCGCCCGCGCCTGGGGCGCCACGCGGCGCGCCCTGGAGACCCGGG
DNA 2: CCCGGGTCTCCAGGGCGCGCCGCGTGGCGCCCCAGGCGCGGGCGCATGGC
For the molecule B1, the binding result is recorded as “binds”.
